Nine molecules from patent US20110262446A1 can be followed below.

For assay [1], the target named is IGF-IIE (amino acids 1-104) (human) (UniProt P01344). The assay is described as follows: SPR (Biacore T100): IgG captured on Protein G', ligand bound, then BP injected; competitor BP2. In general terms: In SPR one partner is held on a chip, and binding of the other changes the refractive index at the surface.
For assay [2] the target is unchanged. Description: SPR (Biacore T100): IgG captured on Protein G', ligand bound, then BP injected; competitor BP4.
Assay [3] shares this target. Description: SPR (Flexchip), Fab, first of duplicate; unit inferred.
Assay [4] shares this target. Description: SPR (Flexchip), Fab, second of duplicate; unit inferred.
For assay [5] the target is unchanged. The assay is described as follows: competition SPR (Biacore T100), affinity in solution: Fab pre-incubated with ligand, free ligand read on immobilized huIR-A ECD; measurement #1; head prints 'KD nM'.
Assay [6] has the same target. The assay is described as follows: cell-based or functional assay.
Assay [7] shares this target. The assay is described as follows: competition SPR (Biacore T100), affinity in solution: Fab pre-incubated with ligand, free ligand read on immobilized huIR-A ECD; measurement #2; head prints 'KD nM'.
Assay [8] has the same target. The assay is described as follows: SPR (Biacore), germlined IgG.
Assay [9] has the same target. Description: SPR (Biacore), non-germlined IgG.

Usually Kd stands for the equilibrium constant for the complex coming apart.

Chain of IGF-IIE (amino acids 1-104) (human) (P01344 25-128 limits assumed, form in doubt): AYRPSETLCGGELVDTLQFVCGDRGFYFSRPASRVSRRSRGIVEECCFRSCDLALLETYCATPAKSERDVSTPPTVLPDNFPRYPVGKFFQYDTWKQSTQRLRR

B1: M0070-H08 IgG (antibody, V domains shown)
VH: EVQLLESGGGLVQPGGSLRLSCAASGFTFSRYWMIWVRQAPGKGLEWVSSIRSSGETKYADSVKGRFTISRDNSKNTLYLQMNSLRAEDTAVYYCARGPLSDYYDSSGYYFDAFDIWGQGTMVTVSS
VL: DIQMTQSPSSLSASAGDRVTITCRASQSISSYLNWYQQKPGKAPNLLIYTTSNLQGGVPSRFSGSGSGTDFTLTISSLQPEDFATYYCQQGYSFPLTFGGGTKVEIK
On to B1, for which the competition score (0 = does not compete significantly, 5 = competes strongly) in assay [1] was 2 score 0-5; in assay [2], 1 score 0-5.

B2: M0070-H08 Fab (Fab, V domains shown)
VH: EVQLLESGGGLVQPGGSLRLSCAASGFTFSRYWMIWVRQAPGKGLEWVSSIRSSGETKYADSVKGRFTISRDNSKNTLYLQMNSLRAEDTAVYYCARGPLSDYYDSSGYYFDAFDIWGQGTMVTVSS
VL: DIQMTQSPSSLSASAGDRVTITCRASQSISSYLNWYQQKPGKAPNLLIYTTSNLQGGVPSRFSGSGSGTDFTLTISSLQPEDFATYYCQQGYSFPLTFGGGTKVEIKR
Turning to B2, the Kd worked out at 0.36 nM in assay [3], 0.39 nM in assay [4] and 4.83 nM in assay [5].

B3: M0072-C06 Fab (Fab, V domains shown)
VH: EVQLLESGGGLVQPGGSLRLSCAASGFTFSAYIMTWVRQAPGKGLEWVSSISPSGGYTVYADSVKGRFTISRDNSKNTLYLQMNSLRAEDTAVYYCARDSGFGDPFDYWGQGTMVTVSS
VL: DIQMTQSPSSLSASVGDRVTITCRASQSIRNYLNWYQQKPGKAPKLLIYAASKLEDGVPSRFSGSGTGTDFTLTIRSLQPEDFASYFCQQSYSSPGITFGPGTKVEIKR
With B3, the IC50, IGF-IIE stimulated BA/F3 cell proliferation (MTS) in assay [6] came out at 2.3 µg/mL. For the same molecule, the Kd in [3] was 0.52 nM; in [5], 3.95 nM; in assay [7] it was 1.05 nM.

B4: M0072-C06 IgG (antibody, V domains shown)
VH: EVQLLESGGGLVQPGGSLRLSCAASGFTFSAYIMTWVRQAPGKGLEWVSSISPSGGYTVYADSVKGRFTISRDNSKNTLYLQMNSLRAEDTAVYYCARDSGFGDPFDYWGQGTMVTVSS
VL: DIQMTQSPSSLSASVGDRVTITCRASQSIRNYLNWYQQKPGKAPKLLIYAASKLEDGVPSRFSGSGTGTDFTLTIRSLQPEDFASYFCQQSYSSPGITFGPGTKVEIK
As to B4, the competition score (0 = does not compete significantly, 5 = competes strongly) in assay [1] stood at 2 score 0-5; in [2], 1 score 0-5.

B5: X0008-A01 (germlined M0064-F02 IgG) (antibody, V domains shown)
VH: EVQLLESGGGLVQPGGSLRLSCAASGFTFSNYIMWWVRQAPGKGLEWVSVISSSGGMTRYADSVKGRFTISRDNSKNTLYLQMNSLRAEDTAVYYCARDNGDYVGEKGFDIWGQGTMVTVSS
VL: DIQMTQSPSSLSASVGDRVTITCRASQSISNYLNWYQQKPGKAPKLLIYTASTLQSGVPSRFSGSGSGTDFTLTISSLQPEDFATYYCQQSYNSPWTFGQGTKVEIK
For B5, in assay [8], the Kd is less than 0.023 nM.

B6: M0064-E04 IgG (antibody, V domains shown)
VH: EVQLLESGGGLVQPGGSLRLSCAASGFTFSVYDMNWVRQAPGKGLEWVSSISSSGGGTLYADSVKGRFTISRDNSKNTLYLQMNSLRAEDTAVYYCARDSDTSSYYWYYDLWGRGTLVTVSS
VL: DIQMTQSPSSLSASVGDRVTITCQASHDISNYLNWYQQKPGKAPKLLIYAASRLQSGVPSRFSGGGSGTDFSLTISSLQAEDFATYYCQQSYSFPRTFGQGTNLEIK
As for B6, in assay [6], the IC50, IGF-IIE stimulated BaF3 cell proliferation (Guava ViaCount) was 130 nM. Moreover, in assay [9], the Kd worked out at 0.24 nM. In addition, the competition score (0 = does not compete significantly, 5 = competes strongly) in [1] and in assay [2] was 4 score 0-5 throughout.

B7: X0005-H01 (germlined M0064-E04 IgG) (antibody, V domains shown)
VH: EVQLLESGGGLVQPGGSLRLSCAASGFTFSVYDMNWVRQAPGKGLEWVSSISSSGGGTLYADSVKGRFTISRDNSKNTLYLQMNSLRAEDTAVYYCARDSDTSSYYWYYDLWGRGTLVTVSS
VL: DIQMTQSPSSLSASVGDRVTITCQASHDISNYLNWYQQKPGKAPKLLIYAASRLQSGVPSRFSGSGSGTDFTLTISSLQPEDFATYYCQQSYSFPRTFGQGTRLEIK
As for B7, in [8], the Kd is 0.26 nM.

B8: M0063-F02 Fab (Fab, V domains shown)
VH: EVQLLESGGGLVQPGGSLRLSCAASGFTFSKYEMDWVRQAPGKGLEWVSVISSSGGGTIYADSVKGRFTISRDNSKNTLYLQMNSLRAEDTAMYYCARGRTLYGGAFDIWGQGTMVTVSS
VL: DIQMTQSPSSLSASVGDRVTITCRASQPINTYLNWYQQRPGKAPRILIYTSSTLQSGVPSRFSGSGSGTDFTLTISSVQPEDFATYYCQQSYSFPLTFGGGTKVEIKR
B8 yielded an IC50, IGF-IIE stimulated BA/F3 cell proliferation (MTS) in assay [6] of 2.04 µg/mL. For the same molecule, the Kd came out at 0.12 nM in assay [3], 0.2 nM in assay [4], 2.78 nM in assay [5] and 1.47 nM in assay [7].

B9: M0063-F02 IgG (antibody, V domains shown)
VH: EVQLLESGGGLVQPGGSLRLSCAASGFTFSKYEMDWVRQAPGKGLEWVSVISSSGGGTIYADSVKGRFTISRDNSKNTLYLQMNSLRAEDTAMYYCARGRTLYGGAFDIWGQGTMVTVSS
VL: DIQMTQSPSSLSASVGDRVTITCRASQPINTYLNWYQQRPGKAPRILIYTSSTLQSGVPSRFSGSGSGTDFTLTISSVQPEDFATYYCQQSYSFPLTFGGGTKVEIK
B9: the IC50, IGF-IIE stimulated BaF3 cell proliferation (Guava ViaCount) in assay [6] worked out at 0.85 nM. Also, in assay [6], the IC50, IGF-IIE stimulated BaF3 cell proliferation (Guava ViaCount), second study is 10 nM. The competition score (0 = does not compete significantly, 5 = competes strongly) in assay [1] and in assay [2] was 1 score 0-5 throughout.
